# B1: ME2-Flag catalytic-inactive mutant (CM), stably expressed in MOLM14 cells (natural protein)
# chain: not shown
# Target: the molecule itself
# Test: cross-linking
protein,measurement,value
B1,stoichiometry N,2

# — paper PMC10472834 (Cell metabolism, 2021)
